Experimental data from PMC8485043.
Several values for one entry are separate records, joined by “and”; a condition that tells them apart may be missing. Equal values may be shown once.

Target: VDAC-ΔC, C-terminally truncated variant of Neurospora crassa VDAC lacking residues 269-283 (β19) (Neurospora crassa)
Assay: SEC-MALS; protein folded in DM, no sterol; UV, MALS and differential refractive index detectors, protein-conjugate analysis in ASTRA

stoichiometry N: 2 and 4
Substance: VDAC-ΔC, C-terminally truncated variant of Neurospora crassa VDAC lacking residues 269-283 (β19) (domain or fragment)
